{"source": "paper PMC6346578", "key": {"[1]": {"target": "T1, SACE_5754 (TetR family regulator) (Saccharopolyspora erythraea A226?) (UniProt A4FLL4)", "T1 sequence": "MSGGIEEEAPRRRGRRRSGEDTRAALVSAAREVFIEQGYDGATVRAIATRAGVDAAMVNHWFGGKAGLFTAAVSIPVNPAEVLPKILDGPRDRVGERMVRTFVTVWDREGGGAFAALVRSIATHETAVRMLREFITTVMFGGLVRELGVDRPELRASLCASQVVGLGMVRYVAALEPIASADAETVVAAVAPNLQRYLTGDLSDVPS", "experiment": "EMSA", "details": "EMSA: 10 mM Tris pH 7.5, 5 mM MgCl2, 60 mM KCl, 10 mM DTT, 50 mM EDTA (so in the source), 10% glycerol, 30 C 10 min, 20 uL; 6% native PAGE, 1x TAE. Footprinting: …"}, "[2]": {"target": "T1, SACE_5754 (TetR family regulator) (Saccharopolyspora erythraea A226?)", "experiment": "DNase I footprinting", "details": "EMSA: 10 mM Tris pH 7.5, 5 mM MgCl2, 60 mM KCl, 10 mM DTT, 50 mM EDTA (so in the source), 10% glycerol, 30 C 10 min, 20 uL; 6% native PAGE, 1x TAE. Footprinting: …"}}}
{"sequence": "CATCGTGCCCAGCCAGTCGAGGAGTGCGGTTTCGTCGGCCATGCCGGGAACTTCGTCGATGGTGGTCAACGTTCTCCTCGCGCAGCAGGTCGTTTCCACGTCGGCGAACACGCGTCGCGATCTTGAGCTTAGTCGCGCGCCGGACGGGGTGTCGAGACTTCCGCGGTGGCGGTGGGAACAGTGAGCACGGCGTCGAACGCGTCGCGCAGCGGCGTCCGCATCCACGTGCTCTGGGAGCGGATCCGGTCC (double strand) [PeryK]", "values": [{"measurement": "binding", "setting": "[1]", "result": "no binding"}]}
{"sequence": "TGCCCGAAAGGTAACCCCGCGGCGGGCAGGAAATCAACACTTGTTGAATTACGGTCGCGCACGCGCTCCGCGATCGCGCGGACACTTACCGCTTCGGGCGGAAATGCATTGCAAGCAAAGAAGATTGGGCCGTTCGGCGGCATCCGGGCCGAGTGGTCAAGCGCACAGAGAACTGAGTTGCCCGCGCCCGTCCGTGCGATGCATGCTTGCGTCCAGCAACTAGTTGGTTGCTGCAATCAAATCGGTTGCGCTCGCCGGGGG (double strand) [P0388-0389]", "values": [{"measurement": "binding", "setting": "[1]", "result": "binds"}, {"measurement": "binding", "setting": "[2]", "result": "binds"}]}
{"sequence": "CTGTGCAGTACCTGGAGGGCGGACCCTCCGGACGCGGGTTGTTCGTCGGTGTGCGCGGATGACCCGTGCGTTCGCGTTTTCCGTTCCTGGCACAGGTGATCCGCTCCACGGGCCCTTTCCCCGCCGTGACCGGACCCTTACAGTGAGTGCGGGTCTTGATCGACAACGCCCGGCGGCAGCAAGCGGAGCCGTCGACGACACCGCAGGGAGAGTCGATGGGTGATCGGACCGGCGACCGGACGATTCCGGAATCCTCGCAGACCGCAACGCGTTTCCTGCTCGGC (double strand) [PeryBVI]", "values": [{"measurement": "binding", "setting": "[1]", "result": "no binding"}]}
{"sequence": "CGGACCGGAGTTCGAGGTACGCGGCTTGCAGGTCCAGGAAGGGGACGTCCATGCGAGTGTCCGTTCGAGTGGCGGCTTGCGCCCGATGCTAGTCGCGGTTGATCGGCGATCGCAGGTGCACGCGGTCGATCTTGACGGCTGGCGAGAGGTGCGGGGAGGATCTGACCGACGCGGTCCACACGTGGCACCGCGATGCTGTTGTGGGCTGGACAATCGTGCCGGTTGGTAGGATCCAGCGGTGAGCAGTTCGGACGAGCAGCCGCGCCCGCGTCGCCGCAACCAGGATCGGCAGCAC (double strand) [PeryCI-ermE]", "values": [{"measurement": "binding", "setting": "[1]", "result": "no binding"}]}
{"sequence": "GGTGGCTTCTGGCGTGCTCATAACGCGTTCAGCGTATCCAGTCGGCTTCCGCCCTTGACCGGCGAGTCCCGGCAGGGCACCCTGAAGTTATTCAACATGCGTTGAAAACTTGGAGGATCGCGATGGAGCGAACGACGTGTTGC (double strand) [P6148-6149]", "values": [{"measurement": "binding", "setting": "[1]", "result": "binds"}, {"measurement": "binding", "setting": "[2]", "result": "binds"}]}
{"sequence": "TCGGCGCCTCCTCCTCGATGCCACCGCTCACACCGCCATCCTCGCTGTCGGCCGCTTCGGGGTGCAAAGCCGGGCTGCGCGCGGCACCCGCCCTGGCGGACGGCACAATTGGGGCATGGTGGGCGGCGACATCGGCAAGATCAGTC (double strand) [P5753-5754]", "values": [{"measurement": "binding", "setting": "[1]", "result": "no binding"}]}
{"sequence": "TCACCACCTGAAACCGCCACCGTTTTCCCGGAATCCGGCCACCGGAACCGGACCGGCCGAAATGGACATTCCGCCACGGTGCCGCGGGCGCCACCCGCACGCACGTTGAATTCAACACATGTTCAACAGCGTCGGAGGCGGGGATAATCGAACCCTGAGCGCCCGCCGAGCGTTCGCCACGGCCGCCATCGTCCGCGTGAGGAACCCATGACCAAGCA (double strand) [P3599]", "values": [{"measurement": "binding", "setting": "[1]", "result": "binds"}, {"measurement": "binding", "setting": "[2]", "result": "binds"}]}
{"sequence": "GGCGGGCAGGAAATCAACACTTGTTGAATTACGGTCGCGCACGCGCTCCGCGATCGCGCGGACACTTACCGCTTCGGGCGGAAATGCATTGCAAGCAAAGAAGATTGGGCCGTTCGGCGGCATCCGGGCCGAGTGGTCAAGCGCACAGAGAACTGAGTTGCCCGCGCCCGTCCGTGCGATGCATGCTTGCGTCCAGCAACTAGTTGGTTGCTGCAATCAAATCGGTTGCGCTCGCCGGGGG (double strand) [Probe 1]", "values": [{"measurement": "binding", "setting": "[1]", "result": "binds"}]}
